Tested on: Escherichia coli TOP10
Assay: shrunken log2 fold change of peptide-encoding DNA abundance (4.5 h post-induction vs induction); higher = less antimicrobial activity (less host growth inhibition)
Conditions: time post-induction: 4.5 h; library: site-saturation at positions 5, 18, 19, 20
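Further: peptides expressed intracellularly from a pBAD plasmid library in pooled LB shake-flask culture, induced with 0.3% L-arabinose, DNA abundance read by NGS, three biological replicates, DESeq2 with apeglm shrinkage.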

Sequence | shrunken log2 fold change
RRIRHRPPRLPRPRPRPNEHPRP | 0.409
RRIRHRPPRLPRPRPRPNEIPRP | -0.21
RRIRHRPPRLPRPRPRPNFIPRP | -0.0658
RRIRHRPPRLPRPRPRPNGMPRP | -0.0133
RRIRHRPPRLPRPRPRPNGNPRP | -0.617
RRIRHRPPRLPRPRPRPNHCPRP | -0.0509
RRIRHRPPRLPRPRPRPNHYPRP | -0.939
RRIRHRPPRLPRPRPRPNIAPRP | -0.112
RRIRHRPPRLPRPRPRPNIEPRP | -0.172
RRIRHRPPRLPRPRPRPNKHPRP | -0.627
RRIRHRPPRLPRPRPRPNKYPRP | -0.782
RRIRHRPPRLPRPRPRPNMFPRP | -0.464
RRIRHRPPRLPRPRPRPNMSPRP | -0.245
RRIRHRPPRLPRPRPRPNNLPRP | -0.596
RRIRHRPPRLPRPRPRPNNQPRP | -0.465
RRIRHRPPRLPRPRPRPNNVPRP | -0.68
RRIRHRPPRLPRPRPRPNNWPRP | -0.269
RRIRHRPPRLPRPRPRPNPHPRP | -0.35
RRIRHRPPRLPRPRPRPNPQPRP | -0.00216
RRIRHRPPRLPRPRPRPNQIPRP | -0.327
RRIRHRPPRLPRPRPRPNRFPRP | -0.00088
RRIRHRPPRLPRPRPRPNTFPRP | -0.00529

Sequence | shrunken log2 fold change
RRIRHRPPRLPRPRPRPNTYPRP | -0.742
RRIRHRPPRLPRPRPRPNVEPRP | -0.063
RRIRHRPPRLPRPRPRPNVKPRP | -0.112
RRIRHRPPRLPRPRPRPNVSPRP | -0.0959
RRIRHRPPRLPRPRPRPNVVPRP | 0.015
RRIRHRPPRLPRPRPRPPCFPRP | -0.0882
RRIRHRPPRLPRPRPRPPDCPRP | 0.182
RRIRHRPPRLPRPRPRPPDNPRP | -0.0231
RRIRHRPPRLPRPRPRPPDWPRP | 0.536
RRIRHRPPRLPRPRPRPPECPRP | 0.331
RRIRHRPPRLPRPRPRPPEQPRP | -0.000687
RRIRHRPPRLPRPRPRPPFVPRP | 0.0135
RRIRHRPPRLPRPRPRPPGHPRP | 0.184
RRIRHRPPRLPRPRPRPPHAPRP | 0.334
RRIRHRPPRLPRPRPRPPHEPRP | 0.181
RRIRHRPPRLPRPRPRPPIGPRP | 0.0617
RRIRHRPPRLPRPRPRPPIYPRP | -0.204
RRIRHRPPRLPRPRPRPPKDPRP | 0.105
RRIRHRPPRLPRPRPRPPLAPRP | 0.378
RRIRHRPPRLPRPRPRPPLWPRP | 0.323
RRIRHRPPRLPRPRPRPPPHPRP | 0.703
RRIRHRPPRLPRPRPRPPPRPRP | 1.25

Sequence | shrunken log2 fold change
RRIRHRPPRLPRPRPRPPQCPRP | 0.178
RRIRHRPPRLPRPRPRPPQQPRP | 0.6
RRIRHRPPRLPRPRPRPPRPPRP | 0.664
RRIRHRPPRLPRPRPRPPTCPRP | 0.0978
RRIRHRPPRLPRPRPRPQAGPRP | -0.0176
RRIRHRPPRLPRPRPRPQAIPRP | -0.119
RRIRHRPPRLPRPRPRPQCLPRP | -0.0192
RRIRHRPPRLPRPRPRPQDDPRP | 0.0649
RRIRHRPPRLPRPRPRPQDKPRP | -0.355
RRIRHRPPRLPRPRPRPQHIPRP | -0.595
RRIRHRPPRLPRPRPRPQHKPRP | -0.494
RRIRHRPPRLPRPRPRPQHSPRP | -0.376
RRIRHRPPRLPRPRPRPQHWPRP | -0.00395
RRIRHRPPRLPRPRPRPQIKPRP | -0.889
RRIRHRPPRLPRPRPRPQIRPRP | -0.207
RRIRHRPPRLPRPRPRPQIYPRP | -0.137
RRIRHRPPRLPRPRPRPQKAPRP | -0.0296
RRIRHRPPRLPRPRPRPQMDPRP | -0.106
RRIRHRPPRLPRPRPRPQNSPRP | -0.423
RRIRHRPPRLPRPRPRPQNTPRP | -0.871
RRIRHRPPRLPRPRPRPQPNPRP | -0.168
RRIRHRPPRLPRPRPRPQSGPRP | 0.165

Sequence | shrunken log2 fold change
RRIRHRPPRLPRPRPRPQTIPRP | -0.793
RRIRHRPPRLPRPRPRPQVQPRP | 0.0789
RRIRHRPPRLPRPRPRPQWDPRP | -0.0406
RRIRHRPPRLPRPRPRPQYAPRP | -0.00149
RRIRHRPPRLPRPRPRPQYNPRP | -0.655
RRIRHRPPRLPRPRPRPRAAPRP | 0.368
RRIRHRPPRLPRPRPRPRAGPRP | 0.638
RRIRHRPPRLPRPRPRPRAHPRP | 0.216
RRIRHRPPRLPRPRPRPRDNPRP | 0.0766
RRIRHRPPRLPRPRPRPRDWPRP | 0.645
RRIRHRPPRLPRPRPRPREHPRP | -0.126
RRIRHRPPRLPRPRPRPRFMPRP | 0.0821
RRIRHRPPRLPRPRPRPRGTPRP | -0.164
RRIRHRPPRLPRPRPRPRICPRP | 0.0205
RRIRHRPPRLPRPRPRPRKPPRP | 0.321
RRIRHRPPRLPRPRPRPRMAPRP | 0.0651
RRIRHRPPRLPRPRPRPRMVPRP | -0.0236
RRIRHRPPRLPRPRPRPRNWPRP | 0.0465
RRIRHRPPRLPRPRPRPRPCPRP | 0.227
RRIRHRPPRLPRPRPRPRPIPRP | 0.117
RRIRHRPPRLPRPRPRPRRRPRP | 0.0874
RRIRHRPPRLPRPRPRPRSIPRP | -0.374

Sequence | shrunken log2 fold change
RRIRHRPPRLPRPRPRPRTNPRP | 0.0589
RRIRHRPPRLPRPRPRPRWGPRP | 0.255
RRIRHRPPRLPRPRPRPRWLPRP | 0.144
RRIRHRPPRLPRPRPRPRYCPRP | -0.293
RRIRHRPPRLPRPRPRPRYHPRP | -0.315
RRIRHRPPRLPRPRPRPSACPRP | -0.0435
RRIRHRPPRLPRPRPRPSCAPRP | 0.137
RRIRHRPPRLPRPRPRPSCPPRP | -0.217
RRIRHRPPRLPRPRPRPSCWPRP | -0.0721
RRIRHRPPRLPRPRPRPSDDPRP | -0.0349
RRIRHRPPRLPRPRPRPSDQPRP | 0.0718
RRIRHRPPRLPRPRPRPSEYPRP | -0.787
RRIRHRPPRLPRPRPRPSFDPRP | -0.429
RRIRHRPPRLPRPRPRPSFMPRP | -0.699
RRIRHRPPRLPRPRPRPSFRPRP | -0.15
RRIRHRPPRLPRPRPRPSHCPRP | -0.0642
RRIRHRPPRLPRPRPRPSHLPRP | -0.0467
RRIRHRPPRLPRPRPRPSKEPRP | -0.0697
RRIRHRPPRLPRPRPRPSKFPRP | -0.64
RRIRHRPPRLPRPRPRPSLIPRP | 0.954
RRIRHRPPRLPRPRPRPSLSPRP | -0.619

From the supplement of paper PMC9112550, “Optimization of the antimicrobial peptide Bac7 by deep mutational scanning” (BMC Biology, 2022)
